# Measurements reported in patent US20190071500A1 (ORIONIS BIOSCIENCES, published 2019).
# Molecular target: T1, His6-tagged extracellular domain of human CD8A (human, UniProt P01732 22-182)
# T1 construct: extracellular domain; coated on the solid phase for panning and for the ELISA screening; also called Hiss-tagged extracellular domain of human CD8A; not shown: His tag
# Assay: ELISA, crude periplasmic extracts on coated His-tagged extracellular domain of human CD8A
# Protocol: Three consecutive rounds of panning of a VHH library were performed on solid-phase coated Hiss-tagged extracellular domain of human CD8A (200 μg/ml, 20 μg/well). The enrichment for antigen-specific phages was assessed after each round of panning by comparing the number of phagemid particles eluted from antigen-coated wells with the number of phagemid particles eluted from only-blocked wells (negative control wells). […] 285 colonies (95 & 190 from 2nd and 3rd rounds, respectively) were randomly selected and analyzed by ELISA for the presence of antigen-specific VHHs in their periplasmic extracts (ELISA using crude periplasmic extracts including soluble VHHs). The antigen used for the ELISA screening was the same as the one used for immunization and panning. Out of these 285 colonies, 64 colonies (3 and 61 from 2nd and 3rd rounds of panning, respectively) scored positive in this assay. Based on sequence data, the 64 positive colonies represented 16 different VHHs. The 16 different VHHs belong to 6 different CDR3 groups. Table 2 below provides a description of 3 clones representing the 3 different anti-human CD8A VHH genes. E. coli TG1 harboring recombinant phagemid pMECS containing anti-human CD8A VHH sequences was generated and stored at −80° C. The vector pMECS codes for ampicillin resistance.
# T1 sequence (P01732 22-182): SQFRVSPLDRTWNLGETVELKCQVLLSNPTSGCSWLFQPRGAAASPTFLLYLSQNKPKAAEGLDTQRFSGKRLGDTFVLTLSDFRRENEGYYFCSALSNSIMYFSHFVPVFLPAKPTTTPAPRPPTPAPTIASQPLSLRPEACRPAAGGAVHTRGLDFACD
row,binding result,Binder
1,binds,"R2HCD26 (VHH, not shown: His tag (His-tagged VHHs); the vectors described carry His6 at the C-terminus; exact junction of the tested form not sta) VHH: QVQLQESGGGLVQAGGSLRLSCAASGFTFDDYAIGWFRQAPGKEREGVSCIRVSDGSTYYADPVKGRFTISSDNAKNTVYLQMNSLKPEDAAVYYCAAGSLYTCVQSIVVVPARPYYDMDYWGKGTQVTVSS"
2,binds,"R3HCD27 (VHH, not shown: His tag (His-tagged VHHs); the vectors described carry His6 at the C-terminus; exact junction of the tested form not sta) VHH: QVQLQESGGGSVQPGGSLRLSCAASGFTFDDYAMSWVRQVPGKGLEWVSTINWNGGSAEYAEPVKGRFTISRDNAKNTVYLQMNSLKLEDTAVYYCAKDADLVWYNLSTGQGTQVTVSS"
3,binds,"R3HCD129 (VHH, not shown: His tag (His-tagged VHHs); the vectors described carry His6 at the C-terminus; exact junction of the tested form not sta) VHH: QVQLQESGGGLVQPGGSLRLSCAASGFTFDDYAMSWVRQVPGKGLEWVSTINWNGGSAEYAEPVKGRFTISRDNAKNTVYLQMNSLKLEDTAVYYCAKDADLVWYNLRTGQGTQVTVSS"
